In the supplement of paper PMC11246515:
± gives the standard deviation of the averaged measurements.

Assay: total protein half-life in vivo (active degradation + dilution); higher = more stable protein
[1] = E. coli NCM3722 delta-clpP delta-lon delta-hslV, growth: N-lim chemostat, doubling time 6 h
[2] = E. coli NCM3722 delta-clpP, growth: N-lim chemostat, doubling time 6 h
[3] = E. coli NCM3722 delta-hslV, growth: N-lim chemostat, doubling time 6 h
[4] = E. coli NCM3722 delta-lon, growth: N-lim chemostat, doubling time 6 h
[5] = E. coli NCM3722 delta-smpB, growth: N-lim chemostat, doubling time 6 h
[6] = wild type E. coli NCM3722, growth: C-lim chemostat, doubling time 3 h
[7] = wild type E. coli NCM3722, growth: C-lim chemostat, doubling time 6 h
[8] = wild type E. coli NCM3722, growth: C-lim chemostat, doubling time 12 h
[9] = wild type E. coli NCM3722, growth: N-lim chemostat, doubling time 6 h
[10] = wild type E. coli NCM3722, growth: N-lim chemostat, doubling time 12 h
[11] = wild type E. coli NCM3722, growth: P-lim chemostat, doubling time 6 h
[12] = wild type E. coli NCM3722, growth: P-lim chemostat, doubling time 12 h

Row | Sequence | total protein half-life in vivo [1] | total protein half-life in vivo [2] | total protein half-life in vivo [3] | total protein half-life in vivo [4] | total protein half-life in vivo [5] | total protein half-life in vivo [6] | total protein half-life in vivo [7] | total protein half-life in vivo [8] | total protein half-life in vivo [9] | total protein half-life in vivo [10] | total protein half-life in vivo [11] | total protein half-life in vivo [12]
1 | MALWGGRFTQAADQRFKQFNDSLRFDYRLAEQDIVGSVAWSKALVTVGVLTAEEQAQLEEALNVLLEDVRARPQQILESDAEDIHSWVEGKLIDKVGQLGKKLHTGRSRNDQVATDLKLWCKDTVSELLTANRQLQSALVETAQNNQDAVMPGYTHLQRAQPVTFAHWCLAYVEMLARDESRLQDALKRLDVSPLGCGALAGTAYEIDREQLAGWLGFASATRNSLDSVSDRDHVLELLSAAAIGMVHLSRFAEDLIFFNTGEAGFVELSDRVTSGSSLMPQKKNPDALELIRGKCGRVQGALTGMMMTLKGLPLAYNKDMQEDKEGLFDALDTWLDCLHMAALVLDGIQVKRPRCQEAAQQGYANATELADYLVAKGVPFREAHHIVGEAVVEAIRQGKPLEDLPLSELQKFSQVIDEDVYPILSLQSCLDKRAAKGGVSPQQVAQAIAFAQARLG | 4.96 ± 1 h | 4 ± 0.055 h | 3.462 ± 0.011 h | 4.05 ± 0.2 h | 3.65 ± 0.28 h | 3.02 ± 0.055 h | 5.59 ± 0.33 h | 10.5 ± 0.22 h | 3.77 ± 0.17 h | 5.76 ± 0.05 h | 5.29 ± 0.76 h | 11 ± 0.68 h
2 | MAMFGFPHWQLKSTSTESGVVAPDERLPFAQTAVMGVQHAVAMFGATVLMPILMGLDPNLSILMSGIGTLLFFFITGGRVPSYLGSSAAFVGVVIAATGFNGQGINPNISIALGGIIACGLVYTVIGLVVMKIGTRWIERLMPPVVTGAVVMAIGLNLAPIAVKSVSASAFDSWMAVMTVLCIGLVAVFTRGMIQRLLILVGLIVACLLYGVMTNVLGLGKAVDFTLVSHAAWFGLPHFSTPAFNGQAMMLIAPVAVILVAENLGHLKAVAGMTGRNMDPYMGRAFVGDGLATMLSGSVGGSGVTTYAENIGVMAVTKVYSTLVFVAAAVIAMLLGFSPKFGALIHTIPAAVIGGASIVVFGLIAVAGARIWVQNRVDLSQNGNLIMVAVTLVLGAGDFALTLGGFTLGGIGTATFGAILLNALLSRKLVDVPPPEVVHQEP |  | 4.84 ± 1.8 h | 3.33 ± 1.9 h | > 8 h | 3.66 ± 0.6 h |  |  |  | 3.82 h | 5.58 ± 0.86 h |  | 
3 | MAMPLSLLIGLRFSRGRRRGGMVSLISVISTIGIALGVAVLIVGLSAMNGFERELNNRILAVVPHGEIEAVDQPWTNWQEALDHVQKVPGIAAAAPYINFTGLVESGANLRAIQVKGVNPQQEQRLSALPSFVQGDAWRNFKAGEQQIIIGKGVADALKVKQGDWVSIMIPNSNPEHKLMQPKRVRLHVAGILQLSGQLDHSFAMIPLADAQQYLDMGSSVSGIALKMTDVFNANKLVRDAGEVTNSYVYIKSWIGTYGYMYRDIQMIRAIMYLAMVLVIGVACFNIVSTLVMAVKDKSGDIAVLRTLGAKDGLIRAIFVWYGLLAGLFGSLCGVIIGVVVSLQLTPIIEWIEKLIGHQFLSSDIYFIDFLPSELHWLDVFYVLVTALLLSLLASWYPARRASNIDPARVLSGQ | 5.8 ± 0.74 h | 6.23 ± 0.16 h | 5.66 ± 0.51 h | 5.4 ± 0.27 h | 5.77 ± 0.5 h | 3.32 ± 0.27 h | 5.759 ± 0.033 h |  | 5.94 ± 0.43 h | 13.9 ± 2.2 h | 6.023 ± 0.042 h | 12.2 ± 0.26 h
4 | MANFFIDRPIFAWVLAILLCLTGTLAIFSLPVEQYPDLAPPNVRVTANYPGASAQTLENTVTQVIEQNMTGLDNLMYMSSQSSGTGQASVTLSFKAGTDPDEAVQQVQNQLQSAMRKLPQAVQNQGVTVRKTGDTNILTIAFVSTDGSMDKQDIADYVASNIQDPLSRVNGVGDIDAYGSQYSMRIWLDPAKLNSFQMTAKDVTDAIESQNAQIAVGQLGGTPSVDKQALNATINAQSLLQTPEQFRDITLRVNQDGSEVRLGDVATVEMGAEKYDYLSRFNGKPASGLGVKLASGANEMATAELVLNRLDELAQYFPHGLEYKVAYETTSFVKASIEDVVKTLLEAIALVFLVMYLFLQNFRATLIPTIAVPVVLMGTFSVLYAFGYSVNTLTMFAMVLAIGLLVDDAIVVVENVERIMSEEGLTPREATRKSMGQIQGALVGIAMVLSAVFVPMAFFGGTTGAIYRQFSITIVAAMVLSVLVAMILTPALCATLLKPLKKGEHHGQKGFFAWFNQMFNRNAERYEKGVAKILHRSLRWIVIYVLLLGGMVFLFLRLPTSFLPLEDRGMFTTSVQLPSGSTQQQTLKVVEQIEKYYFTHEKDNIMSVFATVGSGPGGNGQNVARMFIRLKDWSERDSKTGTSFAIIERATKAFNQIKEARVIASSPPAISGLGSSAGFDMELQDHAGAGHDALMAARNQLLALAAENPELTRVRHNGLDDSPQLQIDIDQRKAQALGVAIDDINDTLQTAWGSSYVNDFMDRGRVKKVYVQAAAPYRMLPDDINLWYVRNKDGGMVPFSAFATSRWETGSPRLERYNGYSAVEIVGEAAPGVSTGTAMDIMESLVKQLPNGFGLEWTAMSYQERLSGAQAPALYAISLLVVFLCLAALYESWSVPFSVMLVVPLGVIGALLATWMRGLENDVYFQVGLLTVIGLSAKNAILIVEFANEMNQKGHDLFEATLHACRQRLRPILMTSLAFIFGVLPMATSTGAGSGGQHAVGTGVMGGMISATILAIYFVPLFFVLVRRRFPLKPRPE |  | 6.56 ± 0.62 h | 6.24 ± 0.45 h | 6.05 ± 0.57 h | 5.38 ± 0.37 h |  |  | 12 ± 2.9 h | 6.06 ± 0.82 h | 12.3 ± 0.86 h | 6.36 ± 0.17 h | 
5 | MANGWTGNILRVNLTTGNITLEDSSKFKSFVGGMGFGYKIMYDEVPPGTKPFDEANKLVFATGPLTGSGAPCSSRVNITSLSTFTKGNLVVDAHMGGFFAAQMKFAGYDVIIIEGKAKSPVWLKIKDDKVSLEKADFLWGKGTRATTEEICRLTSPETCVAAIGQAGENLVPLSGMLNSRNHSGGAGTGAIMGSKNLKAIAVEGTKGVNIADRQEMKRLNDYMMTELIGANNNHVVPSTPQSWAEYSDPKSRWTARKGLFWGAAEGGPIETGEIPPGNQNTVGFRTYKSVFDLGPAAEKYTVKMSGCHSCPIRCMTQMNIPRVKEFGVPSTGGNTCVANFVHTTIFPNGPKDFEDKDDGRVIGNLVGLNLFDDYGLWCNYGQLHRDFTYCYSKGVFKRVLPAEEYAEIRWDQLEAGDVNFIKDFYYRLAHRVGELSHLADGSYAIAERWNLGEEYWGYAKNKLWSPFGYPVHHANEASAQVGSIVNCMFNRDCMTHTHINFIGSGLPLKLQREVAKELFGSEDAYDETKNYTPINDAKIKYAKWSLLRVCLHNAVTLCNWVWPMTVSPLKSRNYRGDLALEAKFFKAITGEEMTQEKLDLAAERIFTLHRAYTVKLMQTKDMRNEHDLICSWVFDKDPQIPVFTEGTDKMDRDDMHASLTMFYKEMGWDPQLGCPTRETLQRLGLEDIAADLAAHNLLPA |  |  |  |  |  |  | 5.09 h | 10.2 ± 4.6 h |  | 7.93 ± 1.3 h |  | 
6 | MANLLNKFIMTRILAAITLLLSIVLTILVTIFCSVPIIIAGIVKLLLPVPVIWRKVSRFCDFMMYCWCEGLAVLLHLNPHLQWEVHGLEGLSKKNWYLLICNHRSWADIVVLCVLFRKHIPMNKYFLKQQLAWVPFLGLACWSLDMPFMKRYSRAYLLRHPERRGKDVETTRRSCEKFRLHPTTIVNFVEGSRFTQEKHQQTHSTFQNLLPPKAAGIAMALNVLGKQFDKLLNVTLCYPDNNRQPFFDMLSGKLTRIVVHVDLQPIADELHGDYINDKSFKRHFQQWLNSLWQEKDRLLTSLMSSQRQNK |  | 6.87 h |  |  |  |  | 6.03 h |  |  | 10.5 h |  | 13.6 h
7 | MANPTVIKLQDGNVMPQLGLGVWQASNEEVITAIQKALEVGYRSIDTAAAYKNEEGVGKALKNASVNREELFITTKLWNDDHKRPREALLDSLKKLQLDYIDLYLMHWPVPAIDHYVEAWKGMIELQKEGLIKSIGVCNFQIHHLQRLIDETGVTPVINQIELHPLMQQRQLHAWNATHKIQTESWSPLAQGGKGVFDQKVIRDLADKYGKTPAQIVIRWHLDSGLVVIPKSVTPSRIAENFDVWDFRLDKDELGEIAKLDQGKRLGPDPDQFGG | 5.16 ± 0.27 h | 5.3 ± 0.9 h | 5.36 ± 0.068 h | 5.7 ± 0.23 h | 5.17 ± 0.29 h | 3.7 ± 0.23 h | 6.23 ± 0.55 h | 11.8 ± 1.7 h | 4.8 ± 0.42 h | 8.91 ± 0.27 h | 5.85 ± 0.2 h | 13.3 ± 2.8 h
